For assay [1], the target named is hyperphosphorylated tau phosphorylated at serine 396 in human Alzheimer brain (extracts and sections) (human) (UniProt P10636). Kind of assay: immunodepletion of Alzheimer brain extract; western blot. For orientation: A western blot detects proteins with antibodies after separation by electrophoresis.
The target of assay [2] is total tau in Alzheimer brain extract (human) (UniProt P10636). The assay is described as above.
The target of assay [3] is hyper-phosphorylated P301L mutant human 4R0N tau from rTg4510 mouse brain (64 and 70 kDa species; P3 / brain extract) (human) (UniProt P10636). Put plainly: MSD ELISA on immobilised P3; ratio of binding to Tg4510 over wt mouse material. On the technique in general: ELISA stands for enzyme-linked immunosorbent assay.
For assay [4], the target named is aggregated Tau in Alzheimer brain extract (Cisbio assay) (human) (UniProt P10636). Put plainly: immunodepletion of AD extract; Cisbio tau aggregation assay; in comparison to hHel antibody.
Assay [5] addresses pathological hyperphosphorylated tau from human Alzheimer's disease brain, sarkosyl-insoluble P3 fraction (human) (UniProt P10636). Put plainly: MSD ELISA on immobilised P3 tau; ratio of binding to AD over healthy control at saturation.

HJ8.5 (antibody), sequence (VH): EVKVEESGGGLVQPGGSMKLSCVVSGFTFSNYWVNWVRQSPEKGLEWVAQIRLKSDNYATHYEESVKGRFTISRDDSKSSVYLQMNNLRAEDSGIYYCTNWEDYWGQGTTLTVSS
HJ8.5 (antibody), sequence (VL): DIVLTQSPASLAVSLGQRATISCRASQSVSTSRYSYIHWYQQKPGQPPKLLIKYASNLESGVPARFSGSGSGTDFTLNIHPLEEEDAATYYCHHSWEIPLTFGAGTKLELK
hyper-phosphorylated P301L mutant human 4R0N tau from rTg4510 mouse brain (64 and 70 kDa species; P3 / brain extract) (human), sequence (P10636 other isoform, or with tags, fused parts or gaps P301L P301L): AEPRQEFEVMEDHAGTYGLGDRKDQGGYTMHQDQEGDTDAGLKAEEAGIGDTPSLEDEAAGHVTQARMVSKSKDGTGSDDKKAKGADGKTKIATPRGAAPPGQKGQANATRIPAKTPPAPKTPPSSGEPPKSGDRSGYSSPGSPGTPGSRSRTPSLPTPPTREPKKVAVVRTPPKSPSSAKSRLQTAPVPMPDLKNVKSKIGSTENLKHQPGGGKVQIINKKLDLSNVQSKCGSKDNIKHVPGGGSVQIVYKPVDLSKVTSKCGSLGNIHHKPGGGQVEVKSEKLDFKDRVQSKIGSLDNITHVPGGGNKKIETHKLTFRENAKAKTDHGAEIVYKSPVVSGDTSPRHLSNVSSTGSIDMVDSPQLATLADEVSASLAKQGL
pathological hyperphosphorylated tau from human Alzheimer's disease brain, sarkosyl-insoluble P3 fraction (human), sequence (P10636 other isoform, or with tags, fused parts or gaps limits assumed): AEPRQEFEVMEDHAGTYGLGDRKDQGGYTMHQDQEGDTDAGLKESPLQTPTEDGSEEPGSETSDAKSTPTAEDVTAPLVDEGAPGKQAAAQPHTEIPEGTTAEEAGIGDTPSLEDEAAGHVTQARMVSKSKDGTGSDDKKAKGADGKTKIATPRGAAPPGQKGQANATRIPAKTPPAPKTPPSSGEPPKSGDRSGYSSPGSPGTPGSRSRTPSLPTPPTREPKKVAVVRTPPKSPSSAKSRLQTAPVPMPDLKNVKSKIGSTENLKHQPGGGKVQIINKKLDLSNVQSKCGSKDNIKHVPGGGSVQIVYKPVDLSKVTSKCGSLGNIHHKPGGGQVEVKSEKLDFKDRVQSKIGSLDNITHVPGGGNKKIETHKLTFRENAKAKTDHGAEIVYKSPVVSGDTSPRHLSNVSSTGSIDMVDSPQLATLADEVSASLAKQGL
total tau in Alzheimer brain extract (human), sequence (P10636 other isoform, or with tags, fused parts or gaps limits assumed): as above
hyperphosphorylated tau phosphorylated at serine 396 in human Alzheimer brain (extracts and sections) (human), sequence (P10636 other isoform, or with tags, fused parts or gaps limits assumed): as above
aggregated Tau in Alzheimer brain extract (Cisbio assay) (human), sequence (P10636 other isoform, or with tags, fused parts or gaps limits assumed): as above

On to HJ8.5 (antibody), for which the percent removed by immunodepletion in assay [1] turned out to be 88%; in assay [2] it was 89%. Moreover, the TG/wt in assay [3] worked out at 51 fold. The substance also gave a percent of aggregated Tau removed in assay [4] of 99%. Further, in assay [5], the AD/ctrl worked out at 3 fold.

Source of the values: patent US20170015738A1.
